Data from the supplement of paper PMC9170038.

Columns and labels:
MS2 coat protein [1] = assay: apparent KD of MS2 coat protein, switch ON state; designed switch direction (-1 OFF switch, 1 ON switch): -1; higher = weaker reporter binding; conditions: FMN input: 0 or 200 uM; Eterna round: R93 (includes R88 designs)
In short: (§1)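 The buffer was 100 mM Tris-HCl pH 7.5 with 80 mM KCl and 4 mM MgCl2, used without or with constant ligand. In it, RNA switches transcribed on-chip from Illumina sequencing clusters were titrated with SNAP-549-labelled MS2 coat protein in twofold steps from 0.7 or 1.5 nM to 3 µM. Apparent KD for each design is the median of its normalised cluster binding-curve fits.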

MS2 coat protein [2] = assay: apparent KD of MS2 coat protein, switch OFF state (with FMN for OFF switches, without FMN for ON switches); designed switch direction (-1 OFF switch, 1 ON switch): -1; higher = weaker reporter binding; conditions: FMN input: 0 or 200 uM; Eterna round: R93 (includes R88 designs)
In short: as §1

## ACUAUACGAGGAUAUGCUGUCAACACUAAGGAAUUCGUAUGACAUGAGGAUCACCCAUGUAGAAGGCGUAUACU [JR_Exc002_Sub510]
MS2 coat protein [1]
  apparent KD of MS2 coat protein: 23.3 nM
MS2 coat protein [2]
  apparent KD of MS2 coat protein: 27.7 nM

## AGAAAACAUGAGGAUCACCCAUGUCAGGAUAUGUAAAAGAAAAGAAAAGAAAGAAGAAGCAGAAGGGACAAGAA [Sekhemkhet]
MS2 coat protein [1]
  apparent KD of MS2 coat protein: 28.8 nM
MS2 coat protein [2]
  apparent KD of MS2 coat protein: 36.8 nM

## AGAAACGAAGGAUAUACAUGAGGAUCACCCAUGUAAAGAAAGAGGAGAGCCACAAGAAGUAGAAGGUCGAAGAA [JR_Exc003_Sub007]
MS2 coat protein [1]
  apparent KD of MS2 coat protein: 27.4 nM
MS2 coat protein [2]
  apparent KD of MS2 coat protein: 50.7 nM

## AGAAAGACAGGAUAUACAUGAGGAUCACCCAUGUAAAAGAAAGAAAAGGGAAAGAAAAGUAGAAGGGUCAAAGA [Ruby 64]
MS2 coat protein [1]
  apparent KD of MS2 coat protein: 22.1 nM
MS2 coat protein [2]
  apparent KD of MS2 coat protein: 42.1 nM

## AGAAAGUCAGGAUAUGCAGAAAAAAAAACGAAAAAAAAACUGCAGAAGGGACAUGAGGAUCACCCAUGUUAAGA [Mat - Exclusion 4 - Mayanna - D130]
MS2 coat protein [1]
  apparent KD of MS2 coat protein: 49 nM
MS2 coat protein [2]
  apparent KD of MS2 coat protein: 49 nM

## AGAAUUGUAGGAUAUACAUGAGGAUCACCCAUGUGGGAGGUGGAGCAAACAAGACGAGGUAGAAGGACAACGAC [JR_Exc003-Sub904]
MS2 coat protein [1]
  apparent KD of MS2 coat protein: 134 nM
MS2 coat protein [2]
  apparent KD of MS2 coat protein: 125 nM

## AGAGAGUCAGGAUAUACGAAAGAAAAGGGAAACAACAAGGGACAUGAGGAUCACCCAUGUAGAAGGGACGAGAA [Diamond 99]
MS2 coat protein [1]
  apparent KD of MS2 coat protein: 99.8 nM
MS2 coat protein [2]
  apparent KD of MS2 coat protein: 49.8 nM

## AGAGGACAUGAGGAUCACCCAUGUGAGGAUAUGCAAAACUAAGGACAAGAUCGGUAUAGCAGAAGGCACGUAGU [JR_EXc001_Sub808]
MS2 coat protein [1]
  apparent KD of MS2 coat protein: 46.7 nM
MS2 coat protein [2]
  apparent KD of MS2 coat protein: 78.2 nM

## AGCAAGUGAGGAUAUGCGAAGUCAGGACACACACUGACGAAGCAGAAGGCACAUGAGGAUCACCCAUGUAAGCA [JR_Exclusion-4 65% 1]
MS2 coat protein [1]
  apparent KD of MS2 coat protein: 33.1 nM
MS2 coat protein [2]
  apparent KD of MS2 coat protein: 27.1 nM

## AGCAUGUGAGGAUAUGUGACCCUCGUCCUAAGGAUGAGGAAAUAGAAGGCACAUGAGGAUCACCCAUGUGAUGA [Eratusar]
MS2 coat protein [1]
  apparent KD of MS2 coat protein: 65.4 nM
MS2 coat protein [2]
  apparent KD of MS2 coat protein: 293 nM

## AGCUAACAUGAGGAUCACCCAUGUCAGGAUAUGCAAAGAUCGAUCGAACGAUCGAUAAGCAGAAGGGACACUGA [Amethyst 94]
MS2 coat protein [1]
  apparent KD of MS2 coat protein: 27.1 nM
MS2 coat protein [2]
  apparent KD of MS2 coat protein: 47.5 nM

## AGCUAGACAGGAUAUACGAACAUGUCAAAAGACGUAAGGGAACAUGAGGAUCACCCAUGUAGAAGGGUCUAGCA [Diamond 50]
MS2 coat protein [1]
  apparent KD of MS2 coat protein: 28.5 nM
MS2 coat protein [2]
  apparent KD of MS2 coat protein: 63.9 nM

## AGCUAGUCAGGAUAUACAAACAUGUCAAAAGACGUGAAGAAACAUGAGGAUCACCCAUGUAGAAGGGACUAGCA [Mat - Exclusion 2 - JL mod - D16]
MS2 coat protein [1]
  apparent KD of MS2 coat protein: 19.9 nM
MS2 coat protein [2]
  apparent KD of MS2 coat protein: 14.5 nM

## AGCUAGUCAGGAUAUACAAACAUGUCGAAAGACGUGAAGGGACAUGAGGAUCACCCAUGUAGAAGGGACUAGCA [Mod of Janderson's WEB Mod v.2]
MS2 coat protein [1]
  apparent KD of MS2 coat protein: 50 nM
MS2 coat protein [2]
  apparent KD of MS2 coat protein: 273 nM

## AGCUAGUCAGGAUAUACGAACAGCUCAAAAGAGCUGAAGGGACAUGAGGAUCACCCAUGUAGAAGGGACUAGCA [Mat - Exclusion 2 - JL mod - D27]
MS2 coat protein [1]
  apparent KD of MS2 coat protein: 24.5 nM
MS2 coat protein [2]
  apparent KD of MS2 coat protein: 89.6 nM

## AGCUAGUCAGGAUAUACGAACAUGACAAAAGACGUGAAGGGACAUGAGGAUCACCCAUGUAGAAGGGACUAGCA [74%, Web mod - With 1 less U's]
MS2 coat protein [1]
  apparent KD of MS2 coat protein: 38.7 nM
MS2 coat protein [2]
  apparent KD of MS2 coat protein: 89.7 nM

## AGCUAGUGAGGAUAUACGAACAAGUAAACGGACUGUAAGGGACAUGAGGAUCACCCAUGUAGAAGGCACUAGCA [Diamond 59]
MS2 coat protein [1]
  apparent KD of MS2 coat protein: 28.6 nM
MS2 coat protein [2]
  apparent KD of MS2 coat protein: 74.5 nM

## AGCUAGUGAGGAUAUACGAACACGUAACAGGACUGUAAGGGACAUGAGGAUCACCCAUGUAGAAGGCACUAGCA [Diamond 61]
MS2 coat protein [1]
  apparent KD of MS2 coat protein: 33.9 nM
MS2 coat protein [2]
  apparent KD of MS2 coat protein: 77 nM

## AGCUAGUGAGGAUAUGCGAACAUGUCAAAAGACGUGAAGGGACAUGAGGAUCACCCAUGUAGAAGGCGCUAGCA [JL 74% mod 2]
MS2 coat protein [1]
  apparent KD of MS2 coat protein: 33 nM
MS2 coat protein [2]
  apparent KD of MS2 coat protein: 32.7 nM

## AGGAGACAUGAGGAUCACCCAUGUUAGGAUAUGAACGAAAAUAAAUAAAAAUAAAAGUUCAGAAGGAACGAAAA [66%, Wbt, 9]
MS2 coat protein [1]
  apparent KD of MS2 coat protein: 45.1 nM
MS2 coat protein [2]
  apparent KD of MS2 coat protein: 45.2 nM

## AGGAUGUCAGGAUAUGUGUAAAGAAUAAAACAAAUAACAACACAGAAGGGACAUGAGGAUCACCCAUGUUAAGA [May 44]
MS2 coat protein [1]
  apparent KD of MS2 coat protein: 36.8 nM
MS2 coat protein [2]
  apparent KD of MS2 coat protein: 55.7 nM

## AGGGAACAUGAGGAUCACCCAUGUGAGGAUAUUGAAAAGAAAAGAAAAGAAAGAAGAACAAGAAGGUACAAGAA [Meryre Pepi I]
MS2 coat protein [1]
  apparent KD of MS2 coat protein: 21.8 nM
MS2 coat protein [2]
  apparent KD of MS2 coat protein: 24.8 nM

## AGUAGAUCAGGAUAUACGUGAAAGGUCAAAGUGUCACUUCUACAUGAGGAUCACCCAUGUAGAAGGGAUCUACA [Ex2 Design 122: Not so Super Stable 9]
MS2 coat protein [1]
  apparent KD of MS2 coat protein: 12.9 nM
MS2 coat protein [2]
  apparent KD of MS2 coat protein: 12.4 nM

## AGUAGUACAGGAUAUACAUGAGGAUCACCCAUGUGAAAAGAAAGUGGCGUACCACAAAGUAGAAGGGUACUACA [Mat - Exclusion 3 - JL mod - D34]
MS2 coat protein [1]
  apparent KD of MS2 coat protein: 33.7 nM
MS2 coat protein [2]
  apparent KD of MS2 coat protein: 152 nM

## AGUGAGUGAGGAUAUCACUGAAGAAUAAAAGAAAUAACGAGUGAGAAGGCACAUGAGGAUCACCCAUGUACACA [May 63]
MS2 coat protein [1]
  apparent KD of MS2 coat protein: 24.1 nM
MS2 coat protein [2]
  apparent KD of MS2 coat protein: 18.3 nM

## AGUUGGCGAGGAUAUACAUGAGGAUCACCCAUGUGAAAUAAAUAAAAAAUAAAAGGGAGUAGAAGGCGCUGACA [73%, Moding Norbert Elias, 17]
MS2 coat protein [1]
  apparent KD of MS2 coat protein: 43.6 nM
MS2 coat protein [2]
  apparent KD of MS2 coat protein: 82.3 nM

## AGUUGGCGAGGAUAUACAUGAGGAUCACCCAUGUGAAAUCGCGAAGAAAUAGGGAAAAGUAGAAGGCGCUGACA [Ruby 61]
MS2 coat protein [1]
  apparent KD of MS2 coat protein: 11.6 nM
MS2 coat protein [2]
  apparent KD of MS2 coat protein: 19.9 nM

## AGUUGGCGAGGAUAUACAUGAGGAUCACCCAUGUGAGAGAAAAAAAGAAGAAAAAAAAGUAGAAGGCGCUGACA [Mat - Exclusion 3 - Lego mod - D43]
MS2 coat protein [1]
  apparent KD of MS2 coat protein: 44.2 nM
MS2 coat protein [2]
  apparent KD of MS2 coat protein: 103 nM

## AUAAACUGAGGAUAUACAUGAGGAUCACCCAUGUAAAAAAAGAAAUGAUCCUCAGGAAGUAGAAGGCAGAAUAA [JR_Exc003_Sub017]
MS2 coat protein [1]
  apparent KD of MS2 coat protein: 13.2 nM
MS2 coat protein [2]
  apparent KD of MS2 coat protein: 28.3 nM

## AUAAAGAGAGGAUAUACAUGAGGAUCACCCAUGUAAGAAAUAAAAUAAAUAAAGGGAAGUAGAAGGCUCAAAUA [Denovo 2]
MS2 coat protein [1]
  apparent KD of MS2 coat protein: 28 nM
MS2 coat protein [2]
  apparent KD of MS2 coat protein: 42.5 nM

## AUAAAGUGAGGAUAUGUAAAAAUAACGAAAGUUAUAAAUAAACAGAAGGCACAUGAGGAUCACCCAUGUGAAAU [Meechl MS2 EX4 62% 2]
MS2 coat protein [1]
  apparent KD of MS2 coat protein: 24.2 nM
MS2 coat protein [2]
  apparent KD of MS2 coat protein: 22.5 nM

## AUCAUGUCAGGAUAUCAGUAGUAAAAAAAAAAAAUUACUACUGAGAAGGGACAUGAGGAUCACCCAUGUCCAAA [EX4 306: Super Stable 6]
MS2 coat protein [1]
  apparent KD of MS2 coat protein: 32.1 nM
MS2 coat protein [2]
  apparent KD of MS2 coat protein: 46.2 nM

## CAGGUACGAGGAUAUACAUAGAUACAGACACAUGUUCAAGUACAUGAGGAUCACCCAUGUAGAAGGCGUAUAUG [Mat - Same state - Mayanna Mod - D108]
MS2 coat protein [1]
  apparent KD of MS2 coat protein: 47.6 nM
MS2 coat protein [2]
  apparent KD of MS2 coat protein: 88.5 nM

## CAGUACUGAGGAUAUACAUGAGGAUCACCCAUGUAUCCAAGCUAGGAAACUAGCACAUGUAGAAGGCAGUACUG [Ex3: 822]
MS2 coat protein [1]
  apparent KD of MS2 coat protein: 294 nM
MS2 coat protein [2]
  apparent KD of MS2 coat protein: 34.5 nM

## CAGUACUGAGGAUAUACAUGAGGAUCACCCAUGUGAUCAAGCUACGAAAGUAGCAAAAGUAGAAGGCAGUACUG [Ex3: 810]
MS2 coat protein [1]
  apparent KD of MS2 coat protein: 277 nM
MS2 coat protein [2]
  apparent KD of MS2 coat protein: 56.7 nM

## CCGAGACAUGAGGAUCACCCAUGUGAGGAUAUAGGUGUAUGCAAAAAAAAGUUAAAAACUAGAAGGCACAGAGG [JR_Exc001_Sub307]
MS2 coat protein [1]
  apparent KD of MS2 coat protein: 37 nM
MS2 coat protein [2]
  apparent KD of MS2 coat protein: 30.9 nM

## CCUGAACAUGAGGAUCACCCAUGUGAGGAUAUGAUGCGAAUAAAGAAAGAAGAAAGCAUCAGAAGGCACAUAGG [Mod of Disincluded 3 v.4]
MS2 coat protein [1]
  apparent KD of MS2 coat protein: 28 nM
MS2 coat protein [2]
  apparent KD of MS2 coat protein: 43.4 nM

## CGCAAACAUGAGGAUCACCCAUGUGAGGAUAUGUGAGCACGAGAAAGAUAAAGUGAGCACAGAAGGCACAAGCG [JR_Exclusion1_Sub6]
MS2 coat protein [1]
  apparent KD of MS2 coat protein: 34.8 nM
MS2 coat protein [2]
  apparent KD of MS2 coat protein: 27.3 nM

## CGGGAGUCAGGAUAUACGAACAUGUCGCCAGAUGUCAAGGUACAUGAGGAUCACCCAUGUAGAAGGGAGGAGAG [salish99-Ex2-34]
MS2 coat protein [1]
  apparent KD of MS2 coat protein: 80.8 nM
MS2 coat protein [2]
  apparent KD of MS2 coat protein: 65 nM

## CUAGUACAUGAGGAUCACCCAUGUCAGGAUAUUGGAUAUGCCAUGGAAAACAUGUUUACAAGAAGGGACUAUAG [EX1 Malc#22]
MS2 coat protein [1]
  apparent KD of MS2 coat protein: 32.9 nM
MS2 coat protein [2]
  apparent KD of MS2 coat protein: 36.4 nM
